Measurements published in the supplement of paper PMC11136658.

System: peptide library, one residue held at a place counted from the Y acceptor
Test: relative phosphorylation of the sub-library (ratio to the mean residue at this position); higher = residue favoured
Procedure, shortened: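 Within 384-well plates, purified recombinant kinases phosphorylated biotinylated Tyr-centred peptide library mixtures over 90 min using 50 μM ATP spiked with γ-32P-ATP; each mixture fixed one residue at one position from −5 to +5. Streptavidin membrane capture, rinsing, phosphorimaging and ImageQuant gave the intensities. These were normalized per position to the sum of the 18 randomized residues (16 for the Ser/Thr-free library) and multiplied by that number.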

Chain of LYN, construct: Full length, human (P07948 whole entry, looked up): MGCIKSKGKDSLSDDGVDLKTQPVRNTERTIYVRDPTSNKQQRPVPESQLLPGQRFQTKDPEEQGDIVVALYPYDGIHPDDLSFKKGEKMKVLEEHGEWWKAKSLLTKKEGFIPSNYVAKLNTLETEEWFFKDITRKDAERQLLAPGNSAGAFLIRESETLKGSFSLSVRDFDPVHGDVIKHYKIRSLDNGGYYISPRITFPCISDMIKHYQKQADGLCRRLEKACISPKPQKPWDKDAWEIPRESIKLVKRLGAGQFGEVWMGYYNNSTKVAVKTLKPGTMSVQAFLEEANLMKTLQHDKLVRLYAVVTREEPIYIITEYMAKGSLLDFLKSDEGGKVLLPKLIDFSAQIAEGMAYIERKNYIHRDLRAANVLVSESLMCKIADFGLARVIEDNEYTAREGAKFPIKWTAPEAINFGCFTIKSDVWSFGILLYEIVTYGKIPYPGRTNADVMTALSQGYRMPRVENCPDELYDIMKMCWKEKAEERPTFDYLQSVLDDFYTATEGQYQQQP
Chain of MATK, construct: Full length, human (P42679 whole entry, looked up): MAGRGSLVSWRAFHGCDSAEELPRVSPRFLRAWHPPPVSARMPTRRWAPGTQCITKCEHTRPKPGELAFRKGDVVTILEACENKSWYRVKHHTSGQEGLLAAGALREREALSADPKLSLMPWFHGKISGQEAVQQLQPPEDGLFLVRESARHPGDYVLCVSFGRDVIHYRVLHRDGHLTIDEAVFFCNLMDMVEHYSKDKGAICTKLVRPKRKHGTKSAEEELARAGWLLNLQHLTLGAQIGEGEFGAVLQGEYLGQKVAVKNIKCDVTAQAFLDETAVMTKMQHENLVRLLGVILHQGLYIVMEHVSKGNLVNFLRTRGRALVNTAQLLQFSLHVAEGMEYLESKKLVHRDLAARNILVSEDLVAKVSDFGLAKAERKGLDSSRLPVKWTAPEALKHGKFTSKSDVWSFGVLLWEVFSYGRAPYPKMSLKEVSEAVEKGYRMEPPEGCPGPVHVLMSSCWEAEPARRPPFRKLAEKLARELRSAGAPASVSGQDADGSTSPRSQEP

LYN, construct: Full length, human (from UniProt P07948)
relative phosphorylation
Settings | at +1 | at +2 | at +3 | at +4 | at +5 | at -1 | at -2 | at -3 | at -4 | at -5
A fixed | 1.69 | 0.956 | 0.493 | 0.796 | 0.932 | 0.577 | 1.02 | 0.769 | 1.09 | 1.05
D fixed | 0.936 | 0.672 | 0.237 | 0.582 | 0.535 | 0.838 | 1.44 | 1.77 | 1.3 | 1.27
E fixed | 1.64 | 1.58 | 0.258 | 0.623 | 0.514 | 1.1 | 1.63 | 2.4 | 1.61 | 1.09
F fixed | 0.757 | 1.12 | 3.21 | 1.07 | 1.48 | 1.27 | 0.808 | 1.09 | 1.44 | 1.06
G fixed | 2.35 | 0.704 | 0.661 | 0.923 | 1 | 0.445 | 1.2 | 0.939 | 1.14 | 1.04
H fixed | 0.807 | 0.613 | 0.68 | 1.22 | 0.988 | 0.505 | 0.773 | 0.703 | 0.641 | 0.871
I fixed | 1.15 | 1.13 | 2.63 | 0.899 | 0.956 | 3.44 | 1.05 | 0.802 | 0.922 | 1.02
K fixed | 0.22 | 0.682 | 0.443 | 1.25 | 1.21 | 0.21 | 0.489 | 0.427 | 0.582 | 0.805
L fixed | 0.822 | 0.804 | 1.47 | 0.911 | 1.04 | 2.08 | 0.993 | 0.835 | 1.24 | 1.03
M fixed | 1.04 | 0.935 | 0.896 | 1.09 | 0.848 | 0.982 | 0.635 | 0.992 | 0.992 | 1.07
N fixed | 0.628 | 0.943 | 0.347 | 0.803 | 0.66 | 0.381 | 1.14 | 1.09 | 0.82 | 1.09
P fixed | 0.226 | 0.911 | 0.638 | 1.06 | 1.28 | 0.791 | 1.14 | 1.24 | 0.991 | 1.03
Q fixed | 1.1 | 0.963 | 0.352 | 1.14 | 0.778 | 0.463 | 1.03 | 0.917 | 1.19 | 1.09
R fixed | 0.31 | 0.92 | 0.974 | 1.38 | 1.32 | 0.2 | 0.524 | 0.45 | 0.6 | 0.762
S fixed | 1.05 | 1.31 | 0.507 | 0.974 | 1.05 | 0.413 | 1.16 | 0.905 | 0.721 | 0.833
T fixed | 0.795 | 1.33 | 0.59 | 0.851 | 1.01 | 1.22 | 0.964 | 0.823 | 0.669 | 0.765
V fixed | 1.3 | 1.2 | 1.4 | 0.824 | 0.893 | 2.27 | 1.02 | 0.696 | 0.803 | 0.885
W fixed | 1.18 | 1.22 | 2.21 | 1.61 | 1.5 | 0.811 | 0.977 | 1.15 | 1.25 | 1.23
pThr fixed | 0.927 | 1.68 | 0.243 | 0.385 | 0.435 | 2.22 | 1.34 | 1.24 | 1.14 | 1.11
pTyr fixed | 1.36 | 1.98 | 0.397 | 0.897 | 0.487 | 1.35 | 1.2 | 1.49 | 1.45 | 1.21

MATK, construct: Full length, human (from UniProt P42679)
relative phosphorylation
Settings | at +1 | at +2 | at +3 | at +4 | at +5 | at -1 | at -2 | at -3 | at -4 | at -5
A fixed | 1.54 | 0.899 | 0.728 | 0.85 | 0.892 | 0.545 | 0.986 | 0.875 | 1.17 | 0.971
D fixed | 0.52 | 0.698 | 0.362 | 0.806 | 0.935 | 1.04 | 0.725 | 1.43 | 1.29 | 1.34
E fixed | 1.01 | 0.877 | 0.364 | 1.15 | 1.09 | 2.07 | 1.36 | 2.47 | 1.78 | 1.26
F fixed | 0.735 | 1.12 | 1.38 | 0.839 | 1.18 | 0.512 | 0.538 | 0.854 | 0.872 | 0.935
G fixed | 0.643 | 0.46 | 0.667 | 0.962 | 0.845 | 0.407 | 1.23 | 0.95 | 1.39 | 1.18
H fixed | 1.61 | 0.658 | 1.15 | 1.49 | 1 | 1.71 | 1.09 | 1.08 | 0.975 | 1.01
I fixed | 0.964 | 0.972 | 1.95 | 0.803 | 0.862 | 2.32 | 0.822 | 0.599 | 0.724 | 0.922
K fixed | 0.833 | 0.932 | 1.12 | 1.19 | 0.979 | 0.703 | 0.911 | 0.76 | 0.982 | 0.986
L fixed | 0.776 | 1.24 | 1.51 | 0.876 | 0.881 | 0.905 | 0.737 | 0.683 | 0.756 | 0.763
M fixed | 1.22 | 1.32 | 0.915 | 0.998 | 0.983 | 0.954 | 0.677 | 0.736 | 0.749 | 0.845
N fixed | 0.804 | 1.3 | 0.491 | 1.14 | 1.09 | 0.988 | 1.03 | 1.23 | 0.879 | 1.1
P fixed | 0.521 | 0.763 | 1.08 | 1.15 | 0.952 | 0.536 | 1.15 | 1.07 | 1.1 | 1.06
Q fixed | 1.13 | 0.885 | 0.749 | 0.856 | 0.991 | 1.02 | 1 | 0.8 | 1.1 | 1.09
R fixed | 1.04 | 1.42 | 1.19 | 1.4 | 1.24 | 0.706 | 1 | 0.967 | 1.04 | 1.09
S fixed | 1.1 | 0.845 | 0.674 | 0.789 | 1.11 | 0.423 | 1.77 | 1.06 | 0.803 | 0.738
T fixed | 0.927 | 0.839 | 0.842 | 0.772 | 1.01 | 0.818 | 1.41 | 0.868 | 0.713 | 0.923
V fixed | 1.24 | 0.848 | 1.46 | 0.665 | 0.832 | 1.72 | 0.887 | 0.696 | 0.668 | 0.724
W fixed | 1.38 | 1.93 | 1.37 | 1.27 | 1.14 | 0.627 | 0.671 | 0.869 | 1 | 1.06
pThr fixed | 1.28 | 1.53 | 0.438 | 0.544 | 0.806 | 0.806 | 1.4 | 2.14 | 1.28 | 0.879
pTyr fixed | 3.3 | 3.6 | 0.787 | 1.2 | 0.998 | 9.49 | 2.64 | 4.79 | 3 | 1.8
